The results in this text go back to article PMC3633659.

For assay [1], the target named is Mamu-B*010:01 (Chinese rhesus macaque | not stated). The experiment in a line: radioligand binding.
The target of assay [2] is Mamu-A2*01:02 (Chinese rhesus macaque | not stated). The experiment in a line: radioligand binding.

On to RRYQKSTEL [… (E. coli derived)], for which the figures for the IC50 in assay [1] and in assay [2] were 0.291 µM and 6.65 µM, respectively.
The like results for MRDHTITLL [… (C. trachomatis NADH-ubiquinone-oxidoreductase-a-chain)] were, in that order, 0.008 µM and > 20 µM.
For EREQTLNQL [… (C. trachomatis ATP-dependent zinc protein)] the same measures were > 20 µM and 13.2 µM.
The like results for NRAKQVIKL [… (C. trachomatis protease ATPase)] were, in that order, 0.106 µM and > 20 µM.
Consider KRVVINKDT [… (Y. enterocolitica Hsp60)], for which the IC50 in assay [1] and in assay [2] was > 20 µM throughout.
As to DRLALLANL [… (C. trachomatis recC exodeoxyribonuclease-V g chain)], the IC50 in assay [1] was > 20 µM; in assay [2], 19.1 µM.
For SRHHAFCFR [… (Aggrecan precursor p667)] the same measures were > 20 µM and 2.06 µM.

Broadly, the IC50 is the concentration needed to halve the response being measured. Low readings indicate higher potency, high ones lower potency.
